Source: patent US20060240510A1, “Method for designing peptides” (CTT Cancer Targeting Technologies OY, priority 2002, published 2006)
Read-outs that look alike come from different tables or passages of the source. Each block holds one molecule with its values, some of them ahead of it. Where a SMILES comes first, the peptide text is derived from it. Bridges are numbered along the chain shown (N, C = ends). Where no end group is shown, it is not given here.

Assays:
gelatinase A (MMP-2) = biological target: T1, gelatinase A (MMP-2) (Homo sapiens, UniProt P08253); test: Inhibition of gelatinase A by hydrophilic CTT library peptides; assay type: biochemical; details: FIG. 5
T1 construct: purchased Roche
T1 sequence (P08253 110-660): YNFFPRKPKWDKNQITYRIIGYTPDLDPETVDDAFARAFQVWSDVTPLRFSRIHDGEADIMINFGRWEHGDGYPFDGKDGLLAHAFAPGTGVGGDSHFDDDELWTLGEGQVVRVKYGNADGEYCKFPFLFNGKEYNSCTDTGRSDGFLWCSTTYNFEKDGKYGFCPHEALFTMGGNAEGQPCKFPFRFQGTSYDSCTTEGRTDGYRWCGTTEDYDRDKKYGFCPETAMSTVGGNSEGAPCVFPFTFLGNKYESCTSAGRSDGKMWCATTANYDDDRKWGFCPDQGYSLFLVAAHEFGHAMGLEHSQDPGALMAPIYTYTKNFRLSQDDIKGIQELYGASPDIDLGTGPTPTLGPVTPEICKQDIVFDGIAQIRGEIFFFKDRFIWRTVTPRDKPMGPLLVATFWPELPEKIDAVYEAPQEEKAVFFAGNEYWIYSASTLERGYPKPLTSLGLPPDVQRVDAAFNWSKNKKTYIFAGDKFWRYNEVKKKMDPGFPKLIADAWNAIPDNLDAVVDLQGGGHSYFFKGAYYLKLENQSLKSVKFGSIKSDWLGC
Text: FIG. 5. Inhibition of gelatiaase A (MMP-2) with CTT-peptide, with pool 1 and pool 2, both containing 10 different peptide derivates of CTT. The library contains 216 different combinations of CTT peptide derivates. Clone 4 from pool 1 and clone 7 from pool 2 were purified and tested also for their inhibition activity against gelatinase A.
(§1) Gelatinase inhibition assays. Gelatiases proMMP-2 and proMMP-9 (Roche) were activated with p-aminophenylmercuric acetate or trypsin, respectively, and then incubated in the presence or absence of each peptide to be tested for 30 min. The gelatinase inhibitory activity was determined using the following three assays: (i) The degradation of biotinylated gelatin was examined using a gelatinase activity kit according to the manufacturer's instructions. (Roche). (ii) The degradation of a MMP-2 specific fluorescent peptide substrate MCA-Pro-Leu-Ala-Nva-Dpa-Ala-Arg-NH2 (Calbiochem) (2.5 μM final concentration) was followed using MOS-250 spectrofluorometer (Bio-Logic SA, Claix, France) with 330 nm excitation and 390 nm emission. (iii) The degradation of β-casein was studied by incubating activated MMP-2 with 0.1 mg/ml concentration of β-casein for 2 h at 37° C., after which the samples were analyzed on a 15% SDS-PAGE gel.
The oligonucleotide was made double-stranded using PCR. […] This DNA construct was electroporated into MC1061 competent cells. […]

[1] = Solubility in water / PBS
Procedure: The oligonucleotide was made double-stranded using PCR. The PCR product was digested with PstI and SapI and cloned to TWIN2 intein vector (New England Biolabs), digested also with PstI and SapI. This DNA construct was electroporated into MC1061 competent cells. […] The plasmid vectors were extracted from the pool of at least 216 independent clones of MC1061. The plasmids were then electroporated to ER2566 cells enabling the production of inteins. The cells harboring the plasmids were plated on LB plates containing ampicillin. 10 independent clones were pooled to one single pool. These 10 clones in one pool were cultured and the peptides were expressed and purified with chitin affinity column and reverse-phase C18 column. Each pool of peptides was tested for activity. The solubility in PBS was also tested. […] The plasmid coding for this peptide was sequenced and the peptide was synthesized with chemical synthesis.

MMP-9 = biological target: T2, MMP-9 (Homo sapiens, UniProt P14780); test: Gelatin degradation assay (biotinylated gelatin), MMP-9; assay type: biochemical
T2 construct: purchased Roche
T2 sequence (P14780 107-707 limits assumed): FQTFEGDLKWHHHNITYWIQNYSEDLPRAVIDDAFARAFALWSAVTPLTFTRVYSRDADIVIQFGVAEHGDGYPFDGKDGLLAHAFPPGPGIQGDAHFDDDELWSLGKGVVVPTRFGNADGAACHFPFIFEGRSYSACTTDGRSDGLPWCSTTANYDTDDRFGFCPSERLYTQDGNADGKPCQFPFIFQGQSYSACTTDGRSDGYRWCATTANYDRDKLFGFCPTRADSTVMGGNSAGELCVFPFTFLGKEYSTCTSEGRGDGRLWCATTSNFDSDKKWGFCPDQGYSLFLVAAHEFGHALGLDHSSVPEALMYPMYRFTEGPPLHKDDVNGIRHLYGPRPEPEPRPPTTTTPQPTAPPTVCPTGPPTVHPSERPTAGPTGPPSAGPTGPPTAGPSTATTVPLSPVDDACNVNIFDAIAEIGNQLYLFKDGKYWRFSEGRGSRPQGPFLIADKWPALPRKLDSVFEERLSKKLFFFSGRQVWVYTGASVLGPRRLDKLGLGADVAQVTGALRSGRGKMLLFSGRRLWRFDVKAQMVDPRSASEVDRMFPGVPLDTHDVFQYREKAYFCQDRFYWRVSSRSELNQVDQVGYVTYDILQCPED
Procedure: (§2) FIG. 1A and 1B. Inhibition of NWP-2 and MMP-9 by synthetic or intein-produced peptides. (A) MMP-9 was treated with CTT, iCTT, or STT at the peptide concentrations indicated. MMP-9 activity was determined using biotinylated gelatin. (13) The activity of the alanine mutant peptides (see Table 1) was compared to that of CTT, which inhibited MMP-2 by 100% in the gelatin degradation assay. In all assays the peptides were preincubated with the enzyme for 30 min before the substrate was added.
as §1, with “(ii) The degradation of a MMP-2 specific fluorescent peptide substrate MCA-Pro-Leu-Ala-Nva-Dpa-Ala-Arg-NH2 (Calbiochem) (2.5 μM final concentration) was followed using MOS-250 spectrofluorometer (Bio-Logic SA, Claix, France) with 330 nm excitation and 390 nm emission.” left out

[2] = Peptide stability in human serum; assay type: in vitro ADME; details: undiluted human serum, 37° C., anti-CTT antibody dot blot
Procedure: (§3) FIG. 3A and 3B. Activity and stability of the tryptophan analogue containing CTT peptides. (A) Inhibition of MMP-2 using β-casein (21 IcDa) as substrate. The peptides (100 μM) were incubated with MMP-2 and β-casein (0.1 mg/ml) for 2 h and samples run on a 15% SDS-PAGE gel. (B) iCTT, 5F-CTT or a negative control peptide CERGGLETSC at a 150 μM concentration was incubated in undiluted human serum for the indicated time periods at 37° C. Samples were withdrawn, stored frozen and blotted on a nitrocellulose membrane. The level of CTT was quantitated using polyclonal anti-CTT antibody. The blots were scanned and the results shown are means ±SD from triplicate measurements. The results were similar in two other experiments.
Spectrometry and fluorometry. The absorbance spectrum for each peptide in the 200-375 nm range was measured in 20 mM Tris-HCl (pH 7.4)/50 mM NaCl/0.1 mM EDTA with Genesys 5 spectrophotometer (Thermo Spectronic, Rochester, N.Y.). The fluorescence spectra of the CTT phage cultured in the presence of tryptophan, 5FW or 6FW were measured from heat-denatured phages (2×10^9/ml) in 10 mM Tris-HCl (pH 7.5)/140 mM NaCl/1% SDS. The fluorescence emission spectra (average of three scans) at 300-500 nm were recorded with MOS-250 spectrofluorometer. The peptides were excited at 295 nm (bandwidth 5 nm) and the emission spectra recorded in the 300-500 nm range. Peptide stability in human serum. […]

[3] = Peptide stability in cell culture medium; assay type: in vitro ADME; details: cell culture medium with 10% heat-inactivated fetal calf serum
Procedure: The gelatinase inhibitory activities of the modified CTT peptides were tested in the β-casein degradation assay (FIG. 3A) and the gelatin degradation assay (data not shown). […] To determine the peptide levels, we used anti-CTT antibody that also recognized the 5F-Trp containing peptide. […] We could not determine the half-lives of 5OH-Trp and 6F-Trp containing peptides as the anti-CTT antibody recognized these peptides only weakly in the presence of serum.

MMP-2 [4] = biological target: T3, MMP-2 (Homo sapiens, UniProt P08253); test: Gelatin degradation assay (biotinylated gelatin), MMP-2; assay type: biochemical
T3 construct: purchased Roche
T3 sequence (P08253 110-660): T1 sequence (P08253 110-660)
Procedure: as §2, §1

MMP-2 [5] = biological target: T3, MMP-2; test: β-casein degradation assay; assay type: biochemical; details: peptide 100 μM; β-casein 0.1 mg/ml, 2 h
Procedure: as §3
as §1, with “(ii) The degradation of a MMP-2 specific fluorescent peptide substrate MCA-Pro-Leu-Ala-Nva-Dpa-Ala-Arg-NH2 (Calbiochem) (2.5 μM final concentration) was followed using MOS-250 spectrofluorometer (Bio-Logic SA, Claix, France) with 330 nm excitation and 390 nm emission.” left out

[6] = biological target: T4, MMP-2 (gelatinase A), activated (UniProt P08253 30-660, limits assumed); test: cell-based or functional assay
T4 sequence (looked up): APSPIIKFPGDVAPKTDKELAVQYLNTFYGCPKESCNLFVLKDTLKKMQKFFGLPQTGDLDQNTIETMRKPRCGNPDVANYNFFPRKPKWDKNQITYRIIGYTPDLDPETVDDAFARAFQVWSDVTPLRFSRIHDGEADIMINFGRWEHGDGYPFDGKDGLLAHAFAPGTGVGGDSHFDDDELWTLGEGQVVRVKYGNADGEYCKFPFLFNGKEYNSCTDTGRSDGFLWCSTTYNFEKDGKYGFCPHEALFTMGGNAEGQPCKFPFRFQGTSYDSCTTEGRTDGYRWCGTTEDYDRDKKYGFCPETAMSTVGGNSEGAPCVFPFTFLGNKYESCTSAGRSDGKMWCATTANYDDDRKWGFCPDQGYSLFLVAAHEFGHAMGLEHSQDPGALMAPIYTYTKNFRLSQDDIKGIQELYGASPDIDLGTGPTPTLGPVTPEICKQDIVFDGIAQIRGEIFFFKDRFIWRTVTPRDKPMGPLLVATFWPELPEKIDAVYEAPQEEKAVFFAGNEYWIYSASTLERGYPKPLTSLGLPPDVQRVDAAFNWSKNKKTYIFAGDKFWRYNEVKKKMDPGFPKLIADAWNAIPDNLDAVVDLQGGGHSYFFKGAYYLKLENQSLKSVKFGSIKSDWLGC

MMP-9, activated = MMP-9, activated (UniProt P14780 20-707, limits assumed); test: cell-based or functional assay
Chain of MMP-9, activated (P14780 20-707 limits assumed): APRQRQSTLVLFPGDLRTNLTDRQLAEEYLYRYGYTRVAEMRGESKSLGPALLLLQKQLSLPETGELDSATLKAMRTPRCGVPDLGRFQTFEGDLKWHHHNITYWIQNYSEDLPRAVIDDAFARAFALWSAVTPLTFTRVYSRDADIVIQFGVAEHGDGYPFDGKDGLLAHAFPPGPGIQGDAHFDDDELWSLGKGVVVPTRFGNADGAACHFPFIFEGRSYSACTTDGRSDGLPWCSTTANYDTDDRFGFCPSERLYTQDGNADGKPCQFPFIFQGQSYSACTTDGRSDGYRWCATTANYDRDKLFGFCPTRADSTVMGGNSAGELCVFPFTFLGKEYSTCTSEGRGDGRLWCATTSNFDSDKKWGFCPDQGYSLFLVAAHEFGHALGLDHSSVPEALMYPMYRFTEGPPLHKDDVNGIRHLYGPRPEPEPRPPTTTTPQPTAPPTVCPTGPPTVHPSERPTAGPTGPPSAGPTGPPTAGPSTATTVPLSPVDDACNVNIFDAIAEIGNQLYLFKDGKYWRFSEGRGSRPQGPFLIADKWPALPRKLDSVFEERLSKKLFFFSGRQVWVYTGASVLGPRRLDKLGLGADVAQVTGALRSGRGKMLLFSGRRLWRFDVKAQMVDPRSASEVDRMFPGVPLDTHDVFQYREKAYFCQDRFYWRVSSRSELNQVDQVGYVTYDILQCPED

Molecule: GRENYHGCTTRWGFTLC
gelatinase A inhibitory activity (gelatinase A (MMP-2)): active | solubility ([1]; water or PBS): more soluble into water or PBS than the original peptide

Molecule: CC(C)C[C@@H]1NC(=O)[C@H]([C@@H](C)O)NC(=O)[C@H](Cc2ccccc2)NC(=O)CNC(=O)[C@H](Cc2c[nH]c3ccc(F)cc23)NC(=O)[C@H](Cc2c[nH]cn2)NC(=O)[C@H]([C@@H](C)O)NC(=O)[C@H]([C@@H](C)O)NC(=O)[C@@H](N)CSSC[C@@H](C(=O)O)NC1=O [5F-Trp containing peptide, CTTH(5FW)GFTLC] (HELM PEPTIDE1{C.T.T.H.[O=C([C@H](Cc1c[nH]c2ccc(F)cc12)N[*:1])[*:2]].G.F.T.L.C}$PEPTIDE1,PEPTIDE1,1:R3-10:R3$$$V2.0; N-terminus and C-terminus assumed)
half-life at 150 μM [2]: 180 min | stability compared with CTT [3]: No difference

Molecule: CC(C)C[C@@H]1NC(=O)[C@H]([C@@H](C)O)NC(=O)[C@H](Cc2ccccc2)NC(=O)CNC(=O)[C@H](Cc2c[nH]c3ccccc23)NC(=O)[C@H](Cc2c[nH]cn2)NC(=O)[C@H]([C@@H](C)O)NC(=O)[C@H]([C@@H](C)O)NC(=O)[C@@H](N)CSSC[C@@H](C(=O)O)NC1=O [CTT, CTTHWGFTLC] (HELM PEPTIDE1{C.T.T.H.W.G.F.T.L.C}$PEPTIDE1,PEPTIDE1,1:R3-10:R3$$$V2.0; bridges inferred)
IC50 (MMP-9; 30 min preincubation, read-out: IC50, MMP-9 inhibition): 20 µM | IC50 (MMP-2 [4]; 30 min preincubation, read-out: IC50, MMP-2 inhibition): 20 µM | inhibition of MMP-2 (MMP-2 [4]; FIG. 1B): 100% | solubility [1]: water-soluble

Molecule: CC(C)C[C@@H]1NC(=O)[C@H]([C@@H](C)O)NC(=O)[C@H](Cc2ccccc2)NC(=O)CNC(=O)[C@H](Cc2c[nH]c3ccccc23)NC(=O)[C@H](Cc2c[nH]cn2)NC(=O)[C@H]([C@@H](C)O)NC(=O)[C@H]([C@@H](C)O)NC(=O)[C@@H](N)CSSC[C@@H](C(=O)O)NC1=O [iCTT, CTTHWGFTLC] (HELM PEPTIDE1{C.T.T.H.W.G.F.T.L.C}$PEPTIDE1,PEPTIDE1,1:R3-10:R3$$$V2.0; N-terminus and C-terminus assumed)
half-life at 150 μM [2]: 30 min | inhibition of casein degradation by MMP-2 (MMP-2 [5]): nearly complete inhibition

Molecule: CTTHWGFTLC (disulfide 1-10 (inferred)) [CTT: CTTHWGFTLC peptide (chemically synthesized)]
IC50, gelatin degradation assay [6]: 20 µM | IC50, gelatin degradation assay (MMP-9, activated): 20 µM

Continued, values first:

gelatinase inhibitory activity relative to iCTT (MMP-9; FIG. 1A): several fold less active than iCTT
Molecule: STTHWGFTLS [non-cyclic synthetic control peptide]

% of the activity in comparison to the wild type peptide (MMP-2 [4]; FIG. 1B, CTT = 100% inhibition): about 80%
Molecule: CTTAWGFTLC (disulfide 1-10 (inferred)) [H→A, Ala-substitution of the CTT-peptide]

IC50, gelatin degradation assay [6]: 20 µM | IC50, gelatin degradation assay (MMP-9, activated): 20 µM
Molecule: CTTHWGFTLC (disulfide 1-10 (inferred)) [iCTT: recombinant CTTHWGFTLC peptide]

activity in comparison to the wild type peptide, gelatin degradation assay [6]: 17 % of the activity of the wild type peptide
Molecule: CTTHAGFTLC (disulfide 1-10 (inferred)) [W → A alanine mutant of CTT]

activity in comparison to the wild type peptide, gelatin degradation assay [6]: 53 % of the activity of the wild type peptide
Molecule: CTTHWAFTLC (disulfide 1-10 (inferred)) [G → A alanine mutant of CTT]

activity in comparison to the wild type peptide, gelatin degradation assay [6]: 36 % of the activity of the wild type peptide
Molecule: CTTHWGATLC (disulfide 1-10 (inferred)) [F → A alanine mutant of CTT]
